In the supplement of paper PMC12667976:
± gives the standard error.

B1: library; numbered along this chain (parent)
chain: MATDAALRRLLRLHRTEIAVAVDSAFPLLHALADHDVVPEDKFQETLHLKEKEGCPQAFHALLSWLLTQDSTAILDFWRVLFKDYNLERYGRLQPILDSFPKDVDLSQPRKGRKPPAVPKALVPPPRLPTKRKASEEARAAAPAALTPRGTASPGSQLKAKPPKKPESSAEQQRLPLGNGIQTMSASVQRAVAMSSGDVPGARGAVEGILIQQVFESGGSKKCIQVGGEFYTPSKFEDSGSGKNKARSSSGPKPLVRAKGAQGAAPGGGEARLGQQGSVPAPLALPSDPQLHQKNEDECAVCRDGGELICCDGCPRAFHLACLSPPLREIPSGTWRCSSCLQATVQEVQPRAEEPRPQEPPVETPLPPGLRSAGEEVRGPPGEPLAGMDTTLVYKHLPAPPSAAPLPGLDSSALHPLLCVGPEGQQNLAPGARCGVCGDGTDVLRCTHCAAAFHWRCHFPAGTSRPGTGLRCRSCSGDVTPAPVEGVLAPSPARLAPGPAKDDTASHEPALHRDDLESLLSEHTFDGILQWAIQSMARPAAPFPS

Variants of: B1
Test: AIRE transcriptional activation functional score (insulin promoter-GFP; nonsense median 0, synonymous median 1) (normalised score); higher = higher AIRE activity (more reporter activation)
Details: with insulin promoter-GFP reporter in HEK293
How it was run: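 Using Bxb1 recombinase, codon-optimized NNN-codon libraries for three AIRE regions were inserted into Flp-In T-REx HEK293 landing-pad cells with an insulin core promoter-GFP reporter. After integrants (mCherry+, BFP−) were sorted at day 7 and expanded for 7 days, the top 10% GFP and unselected integrant populations underwent tile-sequencing. Functional scores are wild-type-subtracted enrichments of variants in select over non-select samples. A cutoff of 10 counts per million in non-select applied, and values were rescaled (nonsense median 0, synonymous median 1) and averaged over biological replicates.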

AIRE transcriptional activation functional score, by site and new letter:
S506: G 0.799 ± 0.26 | N 0.728 ± 0.11 | T 0.197 ± 0.42 | L 0.875 ± 0.13 | Y 1.42 ± 0.12 | Q 0.92 ± 0.13 | P 1.11 ± 0.67 | V 0.824 ± 0.37 | A 1.36 ± 0.094 | E 0.655 ± 0.93 | R 0.768 ± 0.15 | C 1.39 ± 0.1 | F 0.873 ± 0.072 | K 0.443 ± 0.06 | I 1.63 ± 0.2 | W 0.477 ± 0.064 | M 0.671 ± 0.15 | H 1.08 ± 0.091 | D 1.11 ± 0.088
A505: Y 1.59 ± 0.042 | D 0.657 ± 0.051 | I 1.09 ± 0.19 | T -0.258 ± 0.53 | P 1.01 ± 0.39 | M 0.663 ± 0.15 | K 0.78 ± 0.056 | V 0.997 ± 0.18 | F 0.703 ± 0.13 | C 0.52 ± 0.2 | S 0.985 ± 0.31 | G 0.337 ± 0.36 | E 0.669 ± 0.15 | H -0.421 ± 0.51 | R 0.832 ± 0.26 | L 0.848 ± 0.27
P492: I 1.13 ± 0.2 | T 1.31 ± 0.26 | D -0.0101 ± 0.24 | F 1.04 ± 0.26 | L 1.02 ± 0.38 | C 0.756 ± 0.18 | V 1.07 ± 0.25 | E 0.938 ± 1.1 | S 1.03 ± 0.19 | R 0.779 ± 0.22 | Q 0.812 ± 0.47 | K 0.595 ± 0.036 | Y 0.427 ± 0.18 | N 1.18 ± 0.092 | H 0.521 ± 0.11 | G 1.01 ± 0.11 | A 0.732 ± 0.5 | M 1.76 ± 0.068 | W 0.687 ± 0.21
K501: C 0.625 ± 0.06 | W 0.734 ± 0.049 | R 1.11 ± 0.37 | A 0.451 ± 0.07 | D 0.395 ± 0.075 | M 0.223 ± 0.079 | G 0.947 ± 0.19 | S 1.3 ± 0.21 | L 0.792 ± 0.26 | H 0.51 ± 0.063 | F 1.17 ± 0.085 | V 0.712 ± 0.39 | T 1.04 ± 0.27 | E 0.49 ± 0.17 | N 1.03 ± 0.25 | Y 0.863 ± 0.22 | I 0.714 ± 0.37 | Q 1.08 ± 0.11 | P 0.836 ± 0.36
A493: I 1.04 ± 0.29 | Q 0.91 ± 0.25 | G 1.15 ± 0.18 | M 1.19 ± 0.073 | K 0.774 ± 0.22 | R 1.15 ± 0.12 | W 0.996 ± 0.11 | P 0.631 ± 0.49 | D 0.802 ± 0.12 | N 1.04 ± 0.17 | S 1.29 ± 0.14 | T 0.878 ± 0.31 | H 1.46 ± 0.11 | E 0.985 ± 0.1 | L 1.09 ± 0.35 | Y 1.13 ± 0.092 | C 1.13 ± 0.075 | F 1.17 ± 0.11 | V 1.1 ± 0.26
P499: F 1.11 ± 0.077 | G 1.31 ± 0.46 | Y 1.13 ± 0.21 | E 0.508 ± 0.27 | K 0.747 ± 0.17 | V 1.21 ± 0.17 | W 1.37 ± 0.043 | L 1.11 ± 0.32 | I 1.18 ± 0.57 | R 0.761 ± 0.13 | T 1.32 ± 0.28 | S 1.1 ± 0.15 | Q 1.15 ± 0.18 | A 1.22 ± 0.3 | N 0.266 ± 0.5 | H 1.16 ± 0.058 | D 0.797 ± 0.37 | C 0.764 ± 0.15
H507: Q 0.898 ± 0.13 | I 1.27 ± 0.25 | D 0.604 ± 0.13 | F 1.56 ± 0.1 | V 1.12 ± 0.22 | L 1.01 ± 0.2 | N 1.19 ± 0.34 | M 1.47 ± 0.11 | T 0.361 ± 0.44 | C 0.78 ± 0.14 | P 1.02 ± 0.21 | K 0.802 ± 0.2 | G 0.805 ± 0.084 | Y 1.18 ± 0.29 | E 0.521 ± 0.096 | R 0.823 ± 0.24 | A 0.96 ± 0.58 | S 0.954 ± 0.32
S491: Y 1.35 ± 0.032 | G 0.752 ± 0.26 | T 0.571 ± 0.31 | D 0.749 ± 0.32 | R 0.586 ± 0.16 | M 1.31 ± 0.12 | W 1.03 ± 0.1 | N 0.925 ± 0.47 | K 0.437 ± 0.24 | F 1.05 ± 0.048 | Q 0.998 ± 0.17 | I 1.1 ± 0.2 | L 0.845 ± 0.38 | H 1.42 ± 0.061 | E 1.06 ± 0.16 | V 0.901 ± 0.37 | P 1.1 ± 0.45 | C 1.29 ± 0.089 | A 0.995 ± 0.14
P497: K 0.828 ± 0.14 | V 1.19 ± 0.32 | H 0.871 ± 0.17 | W 0.669 ± 0.11 | L 1.34 ± 0.23 | Y 1.1 ± 0.21 | F 1.03 ± 0.11 | A 1.16 ± 0.32 | D 0.292 ± 0.16 | Q 1.02 ± 0.092 | S 0.852 ± 0.26 | R 0.646 ± 0.21 | M 1.19 ± 0.15 | G 1.29 ± 0.38 | C 1.28 ± 0.1 | I 1.13 ± 0.2 | T 1.09 ± 0.23 | E 0.495 ± 0.076 | N 1.05 ± 0.14
R494: A 0.321 ± 0.24
